Assay results published in patent US4285932A, “Enzyme derivatives for use in the treatment of venous thrombosis” (Beecham Group Limited, priority 1978, dated 1981).

System: Human Plasmin
Test: Deacylation (hydrolysis) of active-site blocked human plasmin, pseudo-first order rate constant followed by regain of activity on chromogenic substrate S-2251
Format: biochemical
Details: active site serine substituted human plasmin; pH 7.4, 37° C.
Description: The pseudo-first order rate constant is determined by hydrolysing the enzyme derivative under physiological conditions i.e. in isotonic aqueous media at pH 7.4 and at 37° C. At regular intervals aliquots are withdrawn and incubated with a chromogenic or fluorogenic protease substrate such as S-2251 (H-D-Val-Leu-Lys-p-nitroanilide 2HCl) and the rate of conversion of the substrate measured.
The hydrolysis is followed until such time as the rate of conversion of substrate reaches a maximum. The rate constant k is then calculated by plotting: […]
loge (1-^At /Amax) against t
where Amax the maximum rate at which an aliquot converts substrate and At is the rate at which an aliquot converts substrate at time t.

B1: Acetylsalicycloyl: human plasmin, active site serine blocked by acetylsalicyloyl (acylating agent of Example 7) (protein, UniProt P00747 20-580; P00747 581-810, looked up)
Plasmin heavy chain A: EPLDDYVNTQGASLFSVTKKQLGAGSIEECAAKCEEDEEFTCRAFQYHSKEQQCVIMAENRKSSIIIRMRDVVLFEKKVYLSECKTGNGKNYRGTMSKTKNGITCQKWSSTSPHRPRFSPATHPSEGLEENYCRNPDNDPQGPWCYTTDPEKRYDYCDILECEEECMHCSGENYDGKISKTMSGLECQAWDSQSPHAHGYIPSKFPNKNLKKNYCRNPDRELRPWCFTTDPNKRWELCDIPRCTTPPPSSGPTYQCLKGTGENYRGNVAVTVSGHTCQHWSAQTPHTHNRTPENFPCKNLDENYCRNPDGKRAPWCHTTNSQVRWEYCKIPSCDSSPVSTEQLAPTAPPELTPVVQDCYHGDGQSYRGTSSTTTTGKKCQSWSSMTPHRHQKTPENYPNAGLTMNYCRNPDADKGPWCFTTDPSVRWEYCNLKKCSGTEASVVAPPPVVLLPDVETPSEEDCMFGNGKGYRGKRATTVTGTPCQDWAAQEPHRHSIFTPETNPRAGLEKNYCRNPDGDVGGPWCYTTNPRKLYDYCDVPQCAAPSFDCGKPQVEPKKCPGR
Plasmin light chain B: VVGGCVAHPHSWPWQVSLRTRFGMHFCGGTLISPEWVLTAAHCLEKSPRPSSYKVILGAHQEVNLEPHVQEIEVSRLFLEPTRKDIALLKLSSPAVITDKVIPACLPSPNYVVADRTECFITGWGETQGTFGAGLLKEAQLPVIENKVCNRYEFLNGRVQSTELCAGHLAGGTDSCQGDSGGPLVCFEKDKYILQGVTSWGLGCARPNKPGVYVRVSRFVTWIEGVMRNN
modifications: plasmin acetylsalicyloyl acylated active site
Deacylation rate, Human Plasmin K sec^-1 × 10^4: 4.70 sec^-1 × 10^4

B2: 3,3 Dimethylacryloyl: human plasmin, active site serine blocked by 3,3-dimethylacryloyl (acylating agent of Example 4) (protein, UniProt P00747 20-580; P00747 581-810, looked up)
Plasmin heavy chain A: EPLDDYVNTQGASLFSVTKKQLGAGSIEECAAKCEEDEEFTCRAFQYHSKEQQCVIMAENRKSSIIIRMRDVVLFEKKVYLSECKTGNGKNYRGTMSKTKNGITCQKWSSTSPHRPRFSPATHPSEGLEENYCRNPDNDPQGPWCYTTDPEKRYDYCDILECEEECMHCSGENYDGKISKTMSGLECQAWDSQSPHAHGYIPSKFPNKNLKKNYCRNPDRELRPWCFTTDPNKRWELCDIPRCTTPPPSSGPTYQCLKGTGENYRGNVAVTVSGHTCQHWSAQTPHTHNRTPENFPCKNLDENYCRNPDGKRAPWCHTTNSQVRWEYCKIPSCDSSPVSTEQLAPTAPPELTPVVQDCYHGDGQSYRGTSSTTTTGKKCQSWSSMTPHRHQKTPENYPNAGLTMNYCRNPDADKGPWCFTTDPSVRWEYCNLKKCSGTEASVVAPPPVVLLPDVETPSEEDCMFGNGKGYRGKRATTVTGTPCQDWAAQEPHRHSIFTPETNPRAGLEKNYCRNPDGDVGGPWCYTTNPRKLYDYCDVPQCAAPSFDCGKPQVEPKKCPGR
Plasmin light chain B: VVGGCVAHPHSWPWQVSLRTRFGMHFCGGTLISPEWVLTAAHCLEKSPRPSSYKVILGAHQEVNLEPHVQEIEVSRLFLEPTRKDIALLKLSSPAVITDKVIPACLPSPNYVVADRTECFITGWGETQGTFGAGLLKEAQLPVIENKVCNRYEFLNGRVQSTELCAGHLAGGTDSCQGDSGGPLVCFEKDKYILQGVTSWGLGCARPNKPGVYVRVSRFVTWIEGVMRNN
modifications: plasmin 3,3-dimethylacryloyl acylated active site
Deacylation rate, Human Plasmin K sec^-1 × 10^4: 0.69 sec^-1 × 10^4
